Variants at the floor of the assay were thinned out.
Key:
biotinyl-Phe-oxazolone = test: self-aminoacylation, catalytic enhancement (BFO) (fold over background); higher = more active; k-Seq, kA / k0A0; sequences stand for … in GGGAAUGGAUCCACAUCUACGAAUUC…UUCACUGCAGACUUGACGAAGCUG
Procedure, shortened: (§1)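 Mutagenized RNA pools (0.43 μM; 21-nt variable region) were treated with 2–1250 μM of each biotinyl-aminoacyl-oxazolone. Conditions were 50 μL HEPES/NaCl/KCl/MgCl2/CaCl2 buffer, 5% acetonitrile, pH 6.9–7.0, room temperature, 90 minutes. Catalytic enhancement, the median kA relative to the uncatalyzed rate, was derived from streptavidin capture, qPCR and Illumina sequencing.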

biotinyl-Ile-oxazolone = test: self-aminoacylation, catalytic enhancement (BIO) (fold over background); higher = more active; k-Seq, kA / k0A0; sequences stand for … in GGGAAUGGAUCCACAUCUACGAAUUC…UUCACUGCAGACUUGACGAAGCUG
Procedure, shortened: as §1

biotinyl-Met-oxazolone = test: self-aminoacylation, catalytic enhancement (BMO) (fold over background); higher = more active; k-Seq, kA / k0A0; sequences stand for … in GGGAAUGGAUCCACAUCUACGAAUUC…UUCACUGCAGACUUGACGAAGCUG
Procedure, shortened: as §1

biotinyl-Val-oxazolone = test: self-aminoacylation, catalytic enhancement (BVO) (fold over background); higher = more active; k-Seq, kA / k0A0; sequences stand for … in GGGAAUGGAUCCACAUCUACGAAUUC…UUCACUGCAGACUUGACGAAGCUG
Procedure, shortened: as §1

biotinyl-Leu-oxazolone = test: self-aminoacylation, catalytic enhancement (BLO) (fold over background); higher = more active; k-Seq, kA / k0A0; sequences stand for … in GGGAAUGGAUCCACAUCUACGAAUUC…UUCACUGCAGACUUGACGAAGCUG
Procedure, shortened: as §1

biotinyl-Trp-oxazolone = test: self-aminoacylation, catalytic enhancement (BWO) (fold over background); higher = more active; k-Seq, kA / k0A0; sequences stand for … in GGGAAUGGAUCCACAUCUACGAAUUC…UUCACUGCAGACUUGACGAAGCUG
Procedure, shortened: as §1

Row | Sequence | self-aminoacylation (biotinyl-Phe-oxazolone) | self-aminoacylation (biotinyl-Ile-oxazolone) | self-aminoacylation (biotinyl-Met-oxazolone) | self-aminoacylation (biotinyl-Val-oxazolone) | self-aminoacylation (biotinyl-Leu-oxazolone) | self-aminoacylation (biotinyl-Trp-oxazolone)
1 | AAGUUUGAGAAUAGUCGCAAG [Fam3.1 aminoacylation ribozyme variant] | 2.05 | 1.48 | 1.2 | 1.29 | 1.25 | 1.59
2 | AAGUUUGAUAAUAGACGCAAG [Fam3.1 aminoacylation ribozyme variant] | 0.787 | 0.364 | 0.346 | 0.418 | 0.311 | 0.331
3 | AAGUUUGAUAAUAGUCGGAAG [Fam3.1 aminoacylation ribozyme variant] | 0.778 | 0.514 | 0.556 | 0.572 | 0.536 | 0.436
4 | AAGUUUGAUAAUCGUCGCAAG [Fam3.1 aminoacylation ribozyme variant] | 1.99 | 1.54 | 1.25 | 1.13 | 1.26 | 1.43
5 | AAGUUUGCAAAUAGUCACAAG [Fam3.1 aminoacylation ribozyme variant] | 0.954 | 1.05 | 1.11 | 0.982 | 0.949 | 0.887
6 | AAGUUUGCAAAUAGUCGCAAA [Fam3.1 aminoacylation ribozyme variant] | 0.845 | 1.67 | 1.52 | 1.62 | 1.79 | 1.21
7 | AAGUUUGCAAAUAGUCGCAAG [Fam3.1 aminoacylation ribozyme variant] | 1.03 | 0.763 | 0.734 | 0.752 | 0.665 | 0.789
8 | AAGUUUGCAAAUAGUCGCAAU [Fam3.1 aminoacylation ribozyme variant] | 2.03 | 1.35 | 1.64 | 1.26 | 1.27 | 1.78
9 | AAGUUUGCCAAUAGGCGCAAG [Fam3.1 aminoacylation ribozyme variant] | 1.05 | 1.04 | 0.885 | 1.02 | 1.15 | 0.799
10 | AAGUUUGCCAAUAGUCGCAUG [Fam3.1 aminoacylation ribozyme variant] | 1.7 | 1.5 | 1.79 | 1.59 | 1.45 | 1.56
11 | AAGUUUGCCAAUAGUCGCGAG [Fam3.1 aminoacylation ribozyme variant] | 11.6 | 1.61 | 1.96 | 2.09 | 2.25 | 3.77
12 | AAGUUUGCCAAUAGUUGCAAG [Fam3.1 aminoacylation ribozyme variant] | 1.39 | 0.948 | 0.895 | 0.866 | 0.958 | 0.808
13 | AAGUUUGCCAAUAUUCGCAAG [Fam3.1 aminoacylation ribozyme variant] | 3.77 | 1.51 | 1.35 | 1.07 | 1.07 | 1.45
14 | AAGUUUGCCACUAGUCGCAAG [Fam3.1 aminoacylation ribozyme variant] | 0.709 | 0.918 | 0.991 | 1.15 | 0.973 | 0.807
15 | AAGUUUGCCUAUAGUCGCAAG [Fam3.1 aminoacylation ribozyme variant] | 0.956 | 0.844 | 0.706 | 0.981 | 0.718 | 0.784
16 | AAGUUUGCGAAUAGUCGAAAG [Fam3.1 aminoacylation ribozyme variant] | 0.796 | 1.05 | 1.17 | 0.733 | 1.11 | 0.83
17 | AAGUUUGCGAAUAGUCGCAUG [Fam3.1 aminoacylation ribozyme variant] | 1.13 | 1.1 | 1.04 | 1.08 | 1.23 | 1
18 | AAGUUUGCUAAAAGUCGUAAG [Fam3.1 aminoacylation ribozyme variant] | 25.8 | 1.12 | 1.28 | 0.971 | 0.982 | 6.5
19 | AAGUUUGCUAAAGGUCGCAAG [Fam3.1 aminoacylation ribozyme variant] | 1.14 | 0.687 | 0.931 | 0.625 | 0.716 | 0.835
20 | AAGUUUGCUAACCGUCGCAAG [Fam3.1 aminoacylation ribozyme variant] | 0.981 | 0.714 | 0.567 | 0.754 | 0.755 | 0.488
21 | AAGUUUGCUAAGAGUCGAAAG [Fam3.1 aminoacylation ribozyme variant] | 1.3 | 0.804 | 0.817 | 0.785 | 0.602 | 0.757
